In the supplement of paper PMC10126150:
± gives the standard deviation of the averaged measurements.

system: ATP; assay: switch fluorescence ratio, 500 uM ATP over buffer (Cy3 cluster intensity, sum of 5 cycles each) (fold (ratio)); higher = stronger signal-on switching upon ATP binding; sequences stand for … in TCGTCGGCAGCGTCAGATGTGTATAAGAGACAGTTTTTTTTTTTTTTTTTTTTTTTTT…TC; conditions: aptamer strand: ATP DNA aptamer (quencher-CACCTGGGGGAGTATTGCGGAGGAAGG + anchor), 100 nM annealed; ATP concentration: 500 uM
Outline: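 The fluorescence ratio divides summed target-cycle Cy3 intensity by summed buffer-cycle Cy3 intensity for each cluster and is averaged per switch-domain sequence. Cy3-labelled switching-strand clusters on a modified Illumina MiSeq flow-cell were annealed to 100 nM quencher-labelled ATP aptamer, then imaged in selection buffer and again after 15 min with 500 uM ATP at 22 °C. Five such cycles were run, with NaOH stripping and re-annealing between them, and clusters outside 100-1000 RFU were excluded.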
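Further: ATP exposure 15 min at 22 °C before imaging.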

Sequence | switch fluorescence ratio
TTGTTCCTTG | 1.01 ± 0.022
TTGTTCGCCT | 1.02 ± 0.011
TTGTTCTCGC | 1.02 ± 0.048
TTGTTGAAAT | 1.03 ± 0.074
TTGTTGAGGA | 1.01 ± 0.028
TTGTTGAGGC | 1.06 ± 0.1
TTGTTGATTA | 0.9935 ± 0.0089
TTGTTGCAAG | 1.013 ± 0.0079
TTGTTGCTTG | 1.02 ± 0.028
TTGTTGGCGG | 0.994 ± 0.025
TTGTTGGGCA | 1.01 ± 0.032
TTGTTGGTAG | 1.03 ± 0.031
TTGTTGTGGT | 0.987 ± 0.032
TTGTTTAATT | 0.979 ± 0.022
TTGTTTATAT | 0.9853 ± 0.0053
TTGTTTATTT | 1.02 ± 0.032
TTGTTTCATG | 1.01 ± 0.025
TTGTTTCGGG | 0.978 ± 0.018
TTGTTTGCAA | 1.52 ± 0.74
TTGTTTGGGG | 0.998 ± 0.026
TTGTTTGTGA | 0.992 ± 0.011
TTGTTTGTTG | 0.994 ± 0.019
TTGTTTTAC | 1.05 ± 0.067
TTGTTTTACT | 1.027 ± 0.0056
TTGTTTTAGG | 0.987 ± 0.047

Sequence | switch fluorescence ratio
TTGTTTTCTG | 1.02 ± 0.047
TTGTTTTGAA | 1.006 ± 0.0053
TTGTTTTGTT | 1.04 ± 0.1
TTGTTTTTAC | 1.07 ± 0.052
TTGTTTTTGA | 1.05 ± 0.067
TTTAAAACAG | 1.018 ± 0.0079
TTTAAAAGAA | 0.995 ± 0.039
TTTAAAATAT | 0.998 ± 0.046
TTTAAAGAGG | 0.9813 ± 0.0042
TTTAAAGATC | 1 ± 0.021
TTTAAATAT | 1.03 ± 0.086
TTTAAATATG | 0.9942 ± 0.0073
TTTAAATCTC | 0.963 ± 0.014
TTTAAATTAA | 0.9938 ± 0.0026
TTTAACAGTA | 1.04 ± 0.044
TTTAACATAT | 1.022 ± 0.004
TTTAACGATA | 1.07 ± 0.015
TTTAACGATC | 1.01 ± 0.035
TTTAACGGTG | 1.02 ± 0.027
TTTAACTGG | 1.03 ± 0.036
TTTAAGATTT | 1.01 ± 0.03
TTTAAGCGTT | 1.054 ± 0.0066
TTTAAGCTAA | 1.13 ± 0.23
TTTAAGCTGT | 0.978 ± 0.049
TTTAAGGATA | 0.9872 ± 0.0055

Sequence | switch fluorescence ratio
TTTAAGGCCT | 1 ± 0.021
TTTAAGGCTC | 0.994 ± 0.032
TTTAAGGGG | 1.02 ± 0.051
TTTAAGGGGT | 0.991 ± 0.051
TTTAAGTAGT | 1.01 ± 0.028
TTTAAGTTTC | 1 ± 0.025
TTTAATACGC | 1.38 ± 0.26
TTTAATATTA | 0.986 ± 0.015
TTTAATCAAA | 0.988 ± 0.014
TTTAATGGTT | 1.02 ± 0.039
TTTAATGTCC | 0.976 ± 0.07
TTTAATTGCA | 0.988 ± 0.038
TTTAATTGGG | 0.983 ± 0.039
TTTAATTTGT | 1 ± 0.019
TTTACAAAGT | 0.994 ± 0.049
TTTACCCACT | 1.46 ± 0.073
TTTACCCCAT | 1.05 ± 0.032
TTTACCCTAT | 1.06 ± 0.015
TTTACCTCGA | 1.027 ± 0.0069
TTTACGGGGC | 1 ± 0.017
TTTACGGTGA | 1.02 ± 0.043
TTTACGTCAG | 1.013 ± 0.0034
TTTACTAGAT | 1.05 ± 0.012
TTTACTATAT | 1.04 ± 0.032
TTTACTATGG | 0.9984 ± 0.0023

Sequence | switch fluorescence ratio
TTTACTTAGT | 1.02 ± 0.018
TTTACTTGCG | 0.9759 ± 0.0038
TTTACTTTGC | 1.48 ± 0.69
TTTACTTTTT | 1.01 ± 0.027
TTTAGAAAAC | 0.984 ± 0.037
TTTAGAAAAT | 1.01 ± 0.0098
TTTAGAAATC | 1.08 ± 0.16
TTTAGAAGGC | 1.08 ± 0.11
TTTAGAAGGG | 0.979 ± 0.051
TTTAGAATGT | 0.994 ± 0.019
TTTAGACCAG | 1.01 ± 0.059
TTTAGACCCT | 1.013 ± 0.0046
TTTAGAGAGC | 0.987 ± 0.051
TTTAGAGGAA | 0.977 ± 0.032
TTTAGAGTTC | 0.997 ± 0.021
TTTAGATTTG | 1.024 ± 0.0048
TTTAGCACAG | 1.06 ± 0.017
TTTAGCAGCT | 0.993 ± 0.014
TTTAGCGACG | 1.069 ± 0.0098
TTTAGCGCGG | 1 ± 0.029
TTTAGCTCTG | 1.02 ± 0.019
TTTAGCTTAT | 0.9798 ± 0.0056
TTTAGGAAAA | 1 ± 0.029
TTTAGGACTT | 0.994 ± 0.021
TTTAGGCAGG | 0.988 ± 0.022

Sequence | switch fluorescence ratio
TTTAGGGAAT | 1 ± 0.013
TTTAGGGAGG | 0.974 ± 0.026
TTTAGGGATA | 1.09 ± 0.19
TTTAGGGCGC | 1.05 ± 0.044
TTTAGGGGAC | 1 ± 0.012
TTTAGGGGGG | 1.01 ± 0.099
TTTAGGGTG | 1.05 ± 0.061
TTTAGGGTTA | 1.01 ± 0.016
TTTAGGTTGC | 0.9817 ± 0.0056
TTTAGTATGG | 1.02 ± 0.042
TTTAGTATGT | 1.013 ± 0.0025
TTTAGTCACT | 1.03 ± 0.022
TTTAGTCGGG | 1.02 ± 0.046
TTTAGTCTCA | 1.017 ± 0.0089
TTTAGTGCGG | 0.973 ± 0.033
TTTAGTGTCT | 0.983 ± 0.021
TTTAGTGTTG | 0.957 ± 0.041
TTTAGTGTTT | 1.004 ± 0.007
TTTAGTTGAG | 0.971 ± 0.025
TTTAGTTGGT | 1 ± 0.08
TTTAGTTGTA | 1.018 ± 0.0077
TTTAGTTTCG | 1.02 ± 0.025
TTTATAAGAT | 1.01 ± 0.012
TTTATAATTG | 1.03 ± 0.028
TTTATAATTT | 0.981 ± 0.018

Sequence | switch fluorescence ratio
TTTATACCGC | 1.13 ± 0.071
TTTATACTCT | 1.08 ± 0.026
TTTATAGAGC | 1.03 ± 0.054
TTTATAGCGT | 0.974 ± 0.038
TTTATAGGTC | 0.994 ± 0.038
TTTATATGGC | 1.03 ± 0.08
TTTATCACAG | 1.014 ± 0.0041
TTTATCAGTG | 0.987 ± 0.031
TTTATCCCGA | 1.03 ± 0.048
TTTATCCTAG | 0.976 ± 0.003
TTTATCGCAG | 0.994 ± 0.039
TTTATCGTCT | 1.12 ± 0.068
TTTATGAAAA | 1.025 ± 0.0066
TTTATGAGAC | 1.02 ± 0.065
TTTATGAGG | 0.997 ± 0.019
TTTATGAGT | 0.987 ± 0.022
TTTATGATCG | 0.977 ± 0.039
TTTATGCTGC | 1.05 ± 0.038
TTTATGGATT | 1.006 ± 0.01
TTTATGGGAA | 1.01 ± 0.026
TTTATGGGGA | 1 ± 0.02
TTTATGGTTC | 0.992 ± 0.01
TTTATGTCGG | 1.004 ± 0.0091
TTTATGTCTA | 1.02 ± 0.024
TTTATGTGTT | 0.984 ± 0.021

Sequence | switch fluorescence ratio
TTTATGTTTT | 0.965 ± 0.041
TTTATTATGA | 1.01 ± 0.026
TTTATTCGAA | 0.99821 ± 0.00092
TTTATTCTTT | 1 ± 0.021
TTTATTGACT | 1.03 ± 0.013
TTTATTGCGG | 1.01 ± 0.043
TTTATTGGAC | 1.01 ± 0.078
TTTATTGGCG | 1.01 ± 0.035
TTTATTGTCC | 0.975 ± 0.034
TTTATTGTT | 0.99 ± 0.018
TTTATTTATA | 1.01 ± 0.025
TTTATTTCTA | 0.981 ± 0.013
TTTATTTGAA | 1.01 ± 0.025
TTTATTTGGT | 1.03 ± 0.041
TTTATTTTGT | 1 ± 0.038
TTTATTTTTC | 1.04 ± 0.046
TTTCAAAACA | 1.0474 ± 0.00015
TTTCAAATTC | 0.981 ± 0.026
TTTCAAGTGG | 1.014 ± 0.0096
TTTCACACGG | 1.04 ± 0.066
TTTCACCTTT | 1.02 ± 0.047
TTTCAGAAAG | 0.986 ± 0.011
TTTCAGACAT | 1.016 ± 0.008
TTTCAGAGAA | 1.04 ± 0.049
TTTCAGAGGG | 0.992 ± 0.011

Sequence | switch fluorescence ratio
TTTCAGCCGG | 1.04 ± 0.034
TTTCAGGGTT | 1.03 ± 0.072
TTTCAGTCAT | 0.978 ± 0.015
TTTCAGTTTT | 1.1 ± 0.22
TTTCATGATG | 0.998 ± 0.02
TTTCATGGCG | 0.97893 ± 0.0002
TTTCATTAAA | 0.994 ± 0.033
TTTCATTACT | 1.04 ± 0.065
TTTCATTTAT | 0.986 ± 0.021
TTTCATTTCT | 1 ± 0.018
TTTCCAAAAT | 0.991 ± 0.026
TTTCCAGACT | 0.968 ± 0.019
TTTCCATAAG | 1.007 ± 0.0022
TTTCCATTAT | 1.01 ± 0.058
TTTCCATTTT | 1.02 ± 0.074
TTTCCCGAGG | 1.51 ± 0.55
TTTCCGGTGC | 1.7 ± 0.13
TTTCCTCTCG | 1.54 ± 0.76
TTTCCTTTTT | 1.15 ± 0.36
TTTCGAATTC | 1.006 ± 0.0084
TTTCGACAAG | 1.07 ± 0.1
TTTCGAGCGT | 1.01 ± 0.029
TTTCGCGGTC | 1.9 ± 1.1
TTTCGGAGCC | 1.16 ± 0.24
TTTCGGCGGT | 1.02 ± 0.021
